Measured values taken from article PMC6276879 (The EMBO Journal, 2018).

Target: T1, phosphorylated ubiquitin (UniProt P0CG48 1-76, phosphorylated by PINK1 (pUb); the residue is not given)
T1 construct: ubiquitin, phosphorylated by PINK1 (pUb); also called pUb; phospho-ubiquitin; source: E. coli BL21(DE3)CodonPlus-RIL; phosphorylated with Pediculus humanus PINK1, purified (Superdex 75)
Assay: SEC; 1.5-fold excess pUb over R0RBR in 20 mM Tris, 75 mM NaCl, 250 uM TCEP, pH 8; 1:1 complex purified on Superdex 75 10/300
Details: both partners purified

B1: R0RBR parkin (141-465) (domain or fragment, human, UniProt O60260 141-465, looked up)
chain: SIYNSFYVYCKGPCQRVQPGKLRVQCSTCRQATLTLTQGPSCWDDVLIPNRMSGECQSPHCPGTSAEFFFKCGAHPTSDKETSVALHLIATNSRNITCITCTDVRSPVLVFQCNSRHVICLDCFHLYCVTRLNDRQFVHDPQLGYSLPCVAGCPNSLIKELHHFRILGEEQYNRYQQYGAEECVLQMGGVLCPRPGCGAGLLPEPDQRKVTCEGGNGLGCGFAFCRECKEAYHEGECSAVFEASGTTTQAYRVDERAAEQARWEAASKETIKKTTKPCPRCHVPVEKNGGCMHMKCPQPQCRLEWCWNCGCEWNRVCMGDHWFDV
notes: parkin, human, residues 141-465 (R0RBR: RING0-RING1-IBR-RING2(Rcat)); also called R0RBR C-terminal region of parkin; source: E. coli BL21(DE3), purified (HisTrap, Ulp1 cleavage, HisTrap, Superdex 75); not shown: His-smt3, N-terminal, cleaved
binding result: binds
